Measured values reported in US20190309052A1 (Gilead, published 2019).

Assays:
[1] = target: T1, HBx AD38 (genotype D) residue 27-50 peptide (Hepatitis B virus genotype D); assay: ELISA, 100 ng/mL antibody with varying peptide concentration
T1 construct: also called HBx27-50; HBx27-50 peptide
T1 peptide: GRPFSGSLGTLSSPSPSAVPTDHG

HBx69-87 control peptide = target: T2, HBx69-87 control peptide (Hepatitis B virus, UniProt P03165 69-87); assay: ELISA with varying concentrations of peptide
T2 construct: range 69-87; also called HBx69-87 peptide
T2 peptide: CALRFTSARRMETTVNAHQ

B1: HBx M19 mouse monoclonal anti-HBx antibody (antibody, V domains shown)
VH: EVQLQQSGPELVKPGASVKISCQASGYTFTDYYMNWVKQSHGKRLEWIGDINPNNGGTAYNQKFKGKATLTVDRSSSTAYMEVRSLTSEDSAVYFCALLAYWGQGTLVTVSA
VL: DVVMTQTPLSLPVSLGDQASISCRSSQSLVYSDGNTHLHWYLQKTGQSPKLLIYKASNRFSGVPDRFSGSGSGTDFTLKISRVEAEDLGVYFCSQSTHVPLTFGAGTKLELKR
notes: also called aHBx mAb; αHBx mAb
What does the source list for B1?
binding result [1]: binds; binding result (HBx69-87 control peptide): no binding (tested: 100 ng/mL antibody)
